The test system of this series is MS2 coat protein. Put plainly: apparent KD of MS2 coat protein; designed switch direction (-1 OFF switch, 1 ON switch): -1; higher = weaker reporter binding. Put shortly: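 SNAP-549-labelled MS2 coat protein was titrated, doubling from 0.7 or 1.5 nM to 3 µM, over designed RNA switches transcribed on Illumina chips by stalled E. coli RNA polymerase. Runs were done without input, with 200 uM small-molecule ligand, or with an oligonucleotide input. Apparent KD is the per-design median over clusters of curve-fitted normalised fluorescence.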

[1] abbreviates: input ligand: microRNA oligo, concentration not stated.
Setting [2] is: Eterna round: R95, input ligand: FMN 200 uM.
Where [3] appears, read: Eterna round: R95, input ligand: microRNA oligo, concentration not stated.
[4] abbreviates: Eterna round: R95, input ligand: none.

As for “AGAGAAUACUCAGGAUAUCUUAAUAGAAAGAAUAGAGAAGGGAGACAUGAGGAUCACCCAUGUGAAGUCUUGAGACUACAUGGU [Prohibition 29 - Jieux - Exclusion NG 1] (Eterna round: R96, puzzle: Exclusion NG 1)”, under setting [1], the “apparent KD of MS2 coat protein” value is 218 nM.
In the case of “AGAGACCGAGGAUAUCCCAGAACUCACAUGAGGAUCACCCAUGUGUAGAUUGGGUGUCACGGAGAAGGCGGAUCGC [EX5 C.21] (Eterna round: R97, puzzle: Exclusion 5)”, the “apparent KD of MS2 coat protein” value came to 14 nM (input ligand: FMN 200 uM) and 13.8 nM (input ligand: none).
With “AGAGAGUCAGGAUAUCGAAGGGAGAGGAAAGGAGAGAGGGACGAGAAGGGACAUGAGGAUCACCCAUGUAGGUG [JR_Exclusion4)Sub016] (puzzle: Exclusion 4)”, the “apparent KD of MS2 coat protein” value under setting [2] amounted to 233 nM, the “apparent KD of MS2 coat protein” value under setting [3] was determined as 200 nM and the “apparent KD of MS2 coat protein” value under setting [4] came to 432 nM.
Regarding “AGAGUGAGAGGAUAUUGGAUUCCUAACAUGAGGAUCACCCAUGUAGUACGGUGCUACUGACAAGAAGGCUCACUCU [etrenacac ex5r4 #7] (Eterna round: R97, puzzle: Exclusion 5)”, the “apparent KD of MS2 coat protein” value (input ligand: FMN 200 uM) is 54.5 nM and the “apparent KD of MS2 coat protein” value (input ligand: none) was determined as 76.1 nM.
For “AGAGUGUGAGGAUAUAUGGUGAAGGUGAAGAGAGAGGAGGAGUAGAAGGUACAUGAGGAUCACCCAUGUUUGGA [JR_Exclu4_Sub075] (puzzle: Exclusion 4)”, the “apparent KD of MS2 coat protein” value under setting [2] was found to be 32.1 nM, the “apparent KD of MS2 coat protein” value under setting [3] is 33 nM and the “apparent KD of MS2 coat protein” value under setting [4] worked out at 40.8 nM.
In the case of “AGAUAGUGGUGAGGAUAUGAGAAUAGAAAGAAAUCAGAAGGCACACAUGAGGAUCACCCAUGUGAGUUCUUGAGAUUACAUGGU [Prohibition 42 - Jieux - Exclusion NG 1] (Eterna round: R96, puzzle: Exclusion NG 1)”, the “apparent KD of MS2 coat protein” value (input ligand: FMN 200 uM) is 22.6 nM, the “apparent KD of MS2 coat protein” value under setting [1] came out at 11.3 nM and the “apparent KD of MS2 coat protein” value (input ligand: none) amounted to 15.4 nM.
As for “AGAUCACAUGAGGAUCACCCAUGUCAGGAUAUCAUCAUUGAAGCUGCGGCUUCAAUGAUGAGAAGGGACAUAAU [E1/2-B3] (Eterna round: R97, puzzle: Exclusion 1)”, the “apparent KD of MS2 coat protein” value reads like this: (input ligand: FMN 200 uM) 105 nM; (input ligand: none) 412 nM.
The like results for “AGAUCACAUGAGGAUCACCCAUGUGAGGAUAUAGACUGAAGAGCUUCGGCUCUUCAGUCUAGAAGGCACUAUGA [EX1 #45] (Eterna round: R97, puzzle: Exclusion 1)” were, in that order, 28.9 nM and 25.9 nM.
Turning to “AGAUCUAGGACAGGAUAUACCGAUGGCUUCAUCGAAGAUGAAGCCAUCACAUGAGGAUCACCCAUGUAGAAGGGUCCUAGAUCA [Omei Exc(NG) 2Av9] (Eterna round: R96, puzzle: Exclusion NG 2)”, the “apparent KD of MS2 coat protein” value (input ligand: FMN 200 uM) is 11.5 nM, the “apparent KD of MS2 coat protein” value under setting [1] was determined as 9.95 nM and the “apparent KD of MS2 coat protein” value (input ligand: none) worked out at 13.7 nM.
For “AGAUCUAGGACAGGAUAUAUGGAUGUCUUCAUCGAAGAUGAAGACAUUACAUGAGGAUCACCCAUGUAGAAGGGUCCUAGAUCA [Omei Exc(NG) 2Av3] (Eterna round: R96, puzzle: Exclusion NG 2)”, the “apparent KD of MS2 coat protein” value (input ligand: FMN 200 uM) amounted to 17.3 nM, the “apparent KD of MS2 coat protein” value under setting [1] was found to be 17.5 nM and the “apparent KD of MS2 coat protein” value (input ligand: none) is 22.2 nM.
The like results for “AGAUGGAUUGCUAGAAAACUAGUAAUUCAUCAAUCAAGCACAUGAGGAUCACCCAUGUCUUAGAGUACGUGAGUACA [JL gull wing 9] (Eterna round: R96, puzzle: Sensor v2, turn-off variant 2)” were, in that order, 12.8 nM, 12.5 nM and 16 nM.
On to “AGAUGGCGAGGAUAUACAUGAGGAUCACCCAUGUGAGAGAUUAGAGUGAGGAAGAAAAGUAGAAGGCGCUGUCA [Mat - Exclusion 3 - Mod of Salish D18] (puzzle: Exclusion 3)”, for which the “apparent KD of MS2 coat protein” value by setting is: under setting [2], 167 nM; under setting [3], 98.4 nM; under setting [4], 144 nM.
The like results for “AGAUGUAGAUUCCGAUCCUACAUGAGGAUCACCCAUGUAGCUAGACGUGCGGGCGGCGCUCGUCGGACUACCAGUAG [salish99_TOv1_r3_096] (puzzle: Sensor v3, turn-off variant 1)” were, in that order, 53.5 nM, 69.8 nM and 84.6 nM.
For the sequence “AGCAUGCUAGGAUAUACGGGACAUUAGGGUUCGUUGUGUGGACAUGAGGAUCACCCAUGUAGAAGGAGCGUGCA [Mat - Exclusion 2 - Mod of Hyphema - D91] (puzzle: Exclusion 2)”, under setting [3], the “apparent KD of MS2 coat protein” value was 73.1 nM.
For the sequence “AGCCACAGAGGAUAUACAUACAUCCAGUAGUUGAGAAGACUACAUGAGGAUCACCCAUGUAGAAGGCUGUGGCA [Omei Ex2 BD B3] (Eterna round: R97, puzzle: Exclusion 2)”, the “apparent KD of MS2 coat protein” value turned out to be 95.5 nM (input ligand: FMN 200 uM) and 395 nM (input ligand: none).
In the case of “AGCCAGCUAGGAUAUUGCAGUUGUAACAUGAGGAUCACCCAUGUGAUAGGUGUUUAGCUCCAAGAAGGAGCGCGGC [Eronsoti] (puzzle: Exclusion 5)”, the “apparent KD of MS2 coat protein” value by setting is: under setting [2], 88.7 nM; under setting [3], 27.1 nM; under setting [4], 28 nM.
For “AGCCAUGAAGGAUAUACAUGAGGAUCACCCAUGUUGCGGACAGGUUUGAUCGGCGUAGGUAGAAGGUCAAGUAG [Eternabot (L2) Solution 62] (Eterna round: R97, puzzle: Exclusion 3)”, the “apparent KD of MS2 coat protein” value by setting is: (input ligand: FMN 200 uM) 28.2 nM; (input ligand: none) 22.1 nM.
For the sequence “AGCCCUGCAGGAUAUGCCCGGGAUAACAUGAGGAUCACCCAUGUGACCGAUUGUUAUUCUGCAGAAGGGCAUGGGA [JL-EX5-4.17 ViennaUCT mod] (Eterna round: R97, puzzle: Exclusion 5)”, the “apparent KD of MS2 coat protein” value is, setting by setting: (input ligand: FMN 200 uM) 228 nM; (input ligand: none) 235 nM.
On the same counts, the results for “AGCCCUGCAGGAUAUGCCCGGGAUAACAUGAGGAUCACCCAUGUGACCGGUUGUUAGACUGCAGAAGGGCAUGGGA [salish99_ex5_r4_302] (Eterna round: R97, puzzle: Exclusion 5)” are 14.8 nM and 12.2 nM.
“AGCCCUUGUGUCAGGAUAUGCAUCCUUAAAGGACGGCAGAAGGGACAUGAGGAUCACCCAUGUAAAUAGAAAUU [Onatatge] (puzzle: Brourd's mod of Exclusion 4)”: the “apparent KD of MS2 coat protein” value is 16.2 nM under setting [2], 84 nM under setting [3] and 141 nM under setting [4].
“AGCCUCGCUGUUAGGAUAUGCAUGGAUAAGCUCCGGCAGAAGGGACAUGAGGAUCACCCAUGUAACGUAGUUUA [BmEX4 B.4] (Eterna round: R97, puzzle: Brourd's mod of Exclusion 4)”: the “apparent KD of MS2 coat protein” value came out at 31.8 nM (input ligand: FMN 200 uM) and 25.2 nM (input ligand: none).
As for “AGCGAGGAGACAGGAUAUGAGAAUAGAUAGAACUCAGAAGGGUCACAUGAGGAUCACCCAUGUAAAGUCUUGAGGCUGCGUGGU [Prohibition 8 - Jieux - Exclusion NG 1] (Eterna round: R96, puzzle: Exclusion NG 1)”, the “apparent KD of MS2 coat protein” value is, setting by setting: (input ligand: FMN 200 uM) 239 nM; under setting [1], 84.3 nM; (input ligand: none) 88.2 nM.
On the same counts, the results for “AGCGCCAUCGUGAGAUGGCGUAUUACAUGAGGAUCACCCAUGUAGGAUAUCGAUUGCUUUGCAGUCGAGAAGGACAUGUUCUUU [JL ENG3 3.80 Mod D] (Eterna round: R96, puzzle: Exclusion NG 3)” are 27.1 nM, 19.3 nM and 23.4 nM.
“AGCGCCAUCGUGAGAUGGCGUAUUACAUGAGGAUCACCCAUGUAGGAUAUCGAUUGCUUUGCAGUCGAGAAGGGCAUGUCCUAG [JL ENG3 3.80 Mod H] (Eterna round: R96, puzzle: Exclusion NG 3)”: under setting [1], the “apparent KD of MS2 coat protein” value was determined as 25 nM.
Consider “AGCGCUUACGUAGGAUAUGCAUGAGGAUCACCCAUGCAACCACAUUUAACAUGAGGAUCACCCAUGUAGAAGGACGGGUGCGCA [pwkr exNG2 2xF5 1xFMN.2] (Eterna round: R96, puzzle: Exclusion NG 2)”, for which the “apparent KD of MS2 coat protein” value reads like this: (input ligand: FMN 200 uM) 67.8 nM; under setting [1], 20.4 nM; (input ligand: none) 27.9 nM.
“AGCGUGGAGACAGGAUAUGAGAAUAGAUAGAACUCAGAAGGGUCACAUGAGGAUCACCCAUGUAAAGUCUUGAGGAUGAGUGAU [Prohibition 4 - Jieux - Exclusion NG 1] (Eterna round: R96, puzzle: Exclusion NG 1)”: the “apparent KD of MS2 coat protein” value was determined as 192 nM (input ligand: FMN 200 uM), 57.7 nM under setting [1] and 73.5 nM (input ligand: none).
Regarding “AGCUAGAUAGGAUAUGCCCGGGAUAACAUGAGGAUCACCCAUGUGGCCGAAUCAAGUCCAGCAGAAGGGUUUGGGA [Mod of ViennaUCT 11 - Jieux - Exclusion 5] (Eterna round: R97, puzzle: Exclusion 5)”, the “apparent KD of MS2 coat protein” value (input ligand: FMN 200 uM) is 43.2 nM and the “apparent KD of MS2 coat protein” value (input ligand: none) worked out at 34.8 nM.
“AGCUAGGCAGGAUAUACAUGAGGAUCACCCAUGUAAAUUUUUCGUUUAACUUGAAUGUGUAGAAGGGCCAUAAA [Ex3 #51] (Eterna round: R97, puzzle: Exclusion 3)”: the “apparent KD of MS2 coat protein” value by setting is: (input ligand: FMN 200 uM) 23.9 nM; (input ligand: none) 22.4 nM.
The like results for “AGCUGACAAGGAUAUACAUGAGGAUCACCCAUGUUGGUCAAGCGACGAUAGUCGCAAUGUAGAAGGUGUCAGCU [E3/8-C1] (Eterna round: R97, puzzle: Exclusion 3)” were, in that order, 1750 nM and 341 nM.

For the origin of these results see the supplement of paper PMC9170038.
